Experimental data as given in article doi:10.1101/2020.02.11.943159 (bioRxiv, 2020).
Where no end group is shown, it is not given here.

B1: PHF3 SPOC R1248A mutant, bacterially expressed (domain or fragment)
chain: STFLARLNFIWKGFINMPSVAKFVTKAYPVSGSPEYLTEDLPDSIQVGGAISPQTVWDYVEKIKASGTKEICVVRFTPVTEEDQISYTLLFAYFSSRKRYGVAANNMKQVKDMYLIPLGATDKIPHPLVPFDGPGLELHRPNLLLGLIIRQKLKRQHS

What was measured:
pS2 CTD diheptapeptide [1] = experiment: fluorescence correlation spectroscopy
[2] = molecular target: pS2pS5 CTD diheptapeptide; experiment: fluorescence correlation spectroscopy
pS2 CTD diheptapeptide [3] = molecular target: T1, pS2 CTD diheptapeptide (also: pS2: Ser2 phosphorylated, which heptad repeat(s) not given here); experiment: fluorescence polarisation
T1 peptide: YSPTSPSYSPTSPS

[4] = molecular target: T2, pS2pS5 CTD diheptapeptide (also: pS2pS5: Ser2 and Ser5 phosphorylated, which heptad repeat(s) not given here); experiment: fluorescence polarisation
T2 peptide: YSPTSPSYSPTSPS

[5] = molecular target: T3, pS2pS7 CTD diheptapeptide (also: pS2pS7: Ser2 and Ser7 phosphorylated, which heptad repeat(s) not given here); experiment: fluorescence polarisation
T3 peptide: YSPTSPSYSPTSPS

Row | Molecule | stoichiometry N (pS2 CTD diheptapeptide [1]) | stoichiometry N [2] | fold reduction of binding against SPOC WT (pS2 CTD diheptapeptide [3]) [fold] | fold reduction of binding against SPOC WT [4] [fold] | fold reduction of binding against SPOC WT [5] [fold]
1 | PHF3 SPOC domain (1199-1356aa), bacterially expressed (from UniProt Q92576 1199-1356) (domain or fragment) | 1 | 1 | – | – | –
2 | B1 | – | – | > 10 | > 10 | > 10
